# What was measured:
# recombinant human IL-10 [1] = molecular target: T1, recombinant human IL-10 (human, UniProt P22301 19-178); assay: binding ELISA on immobilized recombinant human IL-10; potency relative to reference material; sample stored at 5 C, 1 month
# T1 construct: Immobilized on ELISA microtiter plates; also called interleukin-10
# Description: (§1) In the ELISA assay, individual dose response curves were generated by using a serial dilution of anti-IL10 reference material or test samples binding to recombinant human IL-10 immobilized on ELISA microtiter plates. Then, by using a SoftMax Pro GxP four-parameter logistic curve fitting analysis, EC₅₀ values of reference material as a control and test samples were determined and a reference-to-sample EC₅₀ ratio was calculated as relative potency for a test sample. Final results were reported as potency relative to reference material.
# recombinant human IL-10 [2] = molecular target: T1, recombinant human IL-10; assay: binding ELISA on immobilized recombinant human IL-10; potency relative to reference material; sample stored at 5 C, 3 months
# Description: as §1
# recombinant human IL-10 [3] = molecular target: T1, recombinant human IL-10; assay: binding ELISA on immobilized recombinant human IL-10; potency relative to reference material; sample stored at 5 C, 6 months
# Description: as §1
# recombinant human IL-10 [4] = molecular target: T1, recombinant human IL-10; assay: binding ELISA on immobilized recombinant human IL-10; potency relative to reference material; sample stored at 5 C, initial time point
# Description: as §1
# T1 sequence (P22301 19-178 limits assumed): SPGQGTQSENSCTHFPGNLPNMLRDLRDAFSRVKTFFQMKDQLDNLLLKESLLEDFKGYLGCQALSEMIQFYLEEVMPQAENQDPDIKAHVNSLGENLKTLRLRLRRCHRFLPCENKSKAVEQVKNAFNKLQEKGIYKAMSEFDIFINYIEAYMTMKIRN
binder,measurement,setting,value
"anti-IL-10 hum12G8 (antibody, human IgG1, kappa, V domains shown, Humanized antibody expressed in CHO cells; It was tested as 50 mg/mL drug product in 10 mM histidine, 7% sucrose, 0.02% PS-80, pH 5.5; also called humanized 12G8; hu12G8) VH: QVQLVESGGGVVQPGRSLRLSCAASGFTFSDYHMAWVRQAPGKGLEWVASITLDATYTYYRDSVRGRFTISRDNSKNTLYLQMNSLRAEDTAVYYCARHRGFSVWLDYWGQGTLVTVSS VL: DIQMTQSPSSLSASVGDRVTITCKTSQNIFENLAWYQQKPGKAPKLLIYNASPLQAGVPSRFSGSGSGTDFTLTISSLQPEDFATYYCHQYYSGYTFGPGTKLELKR","Potency Binding ELISA/Biological Potency, % (reference-to-sample EC50 ratio)",recombinant human IL-10 [1],115%
same,"Potency Binding ELISA/Biological Potency, % (reference-to-sample EC50 ratio)",recombinant human IL-10 [2],99%
same,"Potency Binding ELISA/Biological Potency, % (reference-to-sample EC50 ratio)",recombinant human IL-10 [3],105%
same,"Potency Binding ELISA/Biological Potency, % (reference-to-sample EC50 ratio)",recombinant human IL-10 [4],101%

# — patent publication US20190010224A1 (Merck Sharp & Dohme, published 2019)
